For twelve molecules, Ki results are on record in patent publication US20210032299A1 (Eli Lilly, published 2021).

In test [1] the target is T1, human GLP-1 receptor (human, UniProt P43220 24-463).
T1 construct: whole, on cells; Assayed as crude membranes of stably transfected HEK293 cells; also called hGLP1R; hGLP-1R
Briefly: SPA, displacement of [125I]-GLP-1 from hGLP-1R membranes, 0.1% bacitracin. The method, boiled down:
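Binding buffer: 25 mM HEPES pH 7.4, 2.5 mM CaCl₂, 1 mM MgCl₂, 0.1% bacitracin, 0.003% Tween-20, protease inhibitors without EDTA. Four-parameter nonlinear regression; Kᵢ given as geometric mean ± SEM, n = independent replicates run on different days.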
(Displacement assays read how much labelled ligand stays bound in the presence of the test substance.)

Test [2] concerns the target T2, human glucagon receptor (human, UniProt P47871 26-477).
T2 construct: whole, on cells; Assayed as crude membranes of stably transfected HEK293 cells; also called hGcgR; GcgR
Description: SPA, displacement of [125I]-Gcg from hGcgR membranes, 0.1% bacitracin. Here is the method: The binding buffer contains 25 mM 4-(2-hydroxyethyl)-1-piperazineethanesulfonic acid (HEPES), pH 7.4, 2.5 mM CaCl₂), 1 mM MgCl₂, 0.1% (w/v) bacitracin (Research Products), 0.003% (w/v) Polyoxyethylenesorbitan monolaurate (TWEEN®-20), and Roche Complete™ Protease Inhibitors without EDTA. […] Plates are sealed and mixed on a plate shaker (setting 6) for 1 minute and read with a PerkinElmer Trilux MicroBeta® scintillation counter after 12 hours of incubation/settling time at room temperature.
Data are analyzed using four-parameter (curve maximum, curve minimum, […], Hill slope) nonlinear regression routines (Genedata Screener, version 12.0.4, Genedata AG, Basal, Switzerland). […] Values for Kᵢ are reported as the geometric mean, with error expressed as the standard error of the mean (SEM) and n is equal to the number of independent replicates (determined in assays performed on different days).

The target in test [3] is T3, human glucose-dependent insulinotropic polypeptide (GIP) receptor (human, UniProt P48546 22-466).
T3 construct: whole, on cells; Assayed as crude membranes of stably transfected CHO cells; also called hGIPR; human GIP receptor
T3 sequence (looked up): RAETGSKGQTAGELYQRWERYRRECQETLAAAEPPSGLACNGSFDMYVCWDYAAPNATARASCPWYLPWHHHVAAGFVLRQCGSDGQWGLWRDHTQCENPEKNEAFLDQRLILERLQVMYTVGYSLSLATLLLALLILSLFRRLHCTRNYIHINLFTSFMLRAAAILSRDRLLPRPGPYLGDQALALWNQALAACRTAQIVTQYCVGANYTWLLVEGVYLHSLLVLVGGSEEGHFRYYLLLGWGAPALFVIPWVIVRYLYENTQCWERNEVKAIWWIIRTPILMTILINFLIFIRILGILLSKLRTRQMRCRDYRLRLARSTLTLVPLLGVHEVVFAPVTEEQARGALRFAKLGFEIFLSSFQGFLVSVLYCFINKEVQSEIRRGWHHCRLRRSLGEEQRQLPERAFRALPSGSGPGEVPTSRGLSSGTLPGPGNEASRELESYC
Description: SPA, displacement of [125I]-GIP from hGIPR membranes, 0.1% bacitracin.

Starred links: 1 amine or outer side, 2 acyl side, 3 side chain; linkers in the order of their positions; H or OH if unused. Non-standard residues stand in square brackets, D forms with d. Groups on a side chain read outwards from the residue. No end group written: not given here. *: point of attachment. C20 diacid = O=C(O)CCCCCCCCCCCCCCCCCCC(=O)*; αMePhe(2-F) = C[C@](N)(Cc1ccccc1F)C(=O)O; γGlu = O=C(O)[C@H](CCC(=O)[*:2])N[*:1]; 4Pal = N[C@@H](Cc1ccncc1)C(=O)O; αMeL = CC(C)C[C@](C)(N)C(=O)O; Orn = NCCC[C@H](N)C(=O)O; AEEA = NCCOCCOCC(=O)O; Aib = CC(C)(N)C(=O)O

T2 sequence (P47871 26-477): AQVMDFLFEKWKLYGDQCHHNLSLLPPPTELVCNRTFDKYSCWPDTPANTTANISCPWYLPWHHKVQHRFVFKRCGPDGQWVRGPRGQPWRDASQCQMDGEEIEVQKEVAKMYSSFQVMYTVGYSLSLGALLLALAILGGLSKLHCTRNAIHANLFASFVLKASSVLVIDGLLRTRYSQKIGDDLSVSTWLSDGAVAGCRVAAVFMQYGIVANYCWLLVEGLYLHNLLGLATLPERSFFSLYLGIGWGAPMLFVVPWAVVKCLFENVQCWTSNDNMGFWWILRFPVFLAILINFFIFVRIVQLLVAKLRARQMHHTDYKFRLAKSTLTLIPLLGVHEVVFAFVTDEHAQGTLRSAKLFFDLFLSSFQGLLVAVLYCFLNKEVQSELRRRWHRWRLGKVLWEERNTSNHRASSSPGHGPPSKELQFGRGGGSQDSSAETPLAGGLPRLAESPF

B1: Example 1 (peptide)
peptide: YXEGTFISDYSILLDKKAQXDFVNWLLAQGPSSGAPPPS
modifications: D-Ala2; K17((2-[2-(2-Amino-ethoxy)-ethoxy]-acetyl)2-(γ-Glu)-CO-(CH2)18-CO2H); Aib20; C-terminal amide
B1: the figures for the Ki in test [1], in test [2] and in test [3] were 57.8 nM, 228 nM and 0.0667 nM, respectively.

B2: Example 2 (peptide)
peptide: YXEGTFISDYSILLDKKAQXDFVNWLLAQGPSSGAPPPS
modifications: D-Ala2; K17((2-[2-(2-Amino-ethoxy)-ethoxy]-acetyl)2-(γ-Glu)-CO-(CH2)16-CO2H); Aib20; C-terminal amide
Consider B2, for which the Ki stood at 77.9 nM in test [1], 379 nM in test [2] and 0.0373 nM in test [3].

B3: Example 17 (peptide)
peptide: YXEGTFISDYSILLDKKAQXDFVNWLLEQGPSSGAPPPS
modifications: D-Ala2; K17((2-[2-(2-Amino-ethoxy)-ethoxy]-acetyl)2-(γ-Glu)-CO-(CH2)16-CO2H); Aib20; C-terminal amide
Consider B3, for which the Ki in test [1] is 106 nM; in test [2], 274 nM; in test [3] it was 0.0571 nM.

B4: Example 28 (peptide)
peptide: YXEGTFISDYSILLDKKAQXEFVNWLLEGGPSSGAPPPS
modifications: D-Ala2; K17((2-[2-(2-Amino-ethoxy)-ethoxy]-acetyl)2-(γ-Glu)-CO-(CH2)16-CO2H); Aib20; C-terminal amide
Take B4: the Ki worked out at 6.46 nM in test [1], 86.8 nM in test [2] and 0.0732 nM in test [3].

B5: Example 19 (peptide)
peptide: YXEGTFISDYSILLDKKAQXDFVNWLLAGGPSSGAPPPS
modifications: D-Ala2; K17((2-[2-(2-Amino-ethoxy)-ethoxy]-acetyl)2-(γ-Glu)-CO-(CH2)16-CO2H); Aib20; C-terminal amide
With B5, the Ki in test [1] turned out to be 15.2 nM; in test [2], 335 nM; in test [3], 0.0469 nM.

B6: Example 27 (peptide)
peptide: YXEGTFISDYSILLDKKAQXEFVQWLLAGGPSSGAPPPS
modifications: D-Ala2; K17((2-[2-(2-Amino-ethoxy)-ethoxy]-acetyl)2-(γ-Glu)-CO-(CH2)16-CO2H); Aib20; C-terminal amide
Take B6: the Ki in test [1] was determined as 23.2 nM; in test [2], 401 nM; in test [3], 0.0354 nM.

B7: Example 16 (peptide)
peptide: YXEGTFISDYSILLDKKAQXDFVEWLLAQGPSSGAPPPS
modifications: D-Ala2; K17((2-[2-(2-Amino-ethoxy)-ethoxy]-acetyl)2-(γ-Glu)-CO-(CH2)16-CO2H); Aib20; C-terminal amide
In the case of B7, the results for the Ki in test [1], in test [2] and in test [3] were 99.2 nM, 549 nM and 0.0438 nM, respectively.

B8: Example 29 (peptide)
peptide: YXEGTFISDYSILLDKKAQXEFVEWLLAGGPSSGAPPPS
modifications: D-Ala2; K17((2-[2-(2-Amino-ethoxy)-ethoxy]-acetyl)2-(γ-Glu)-CO-(CH2)16-CO2H); Aib20; C-terminal amide
In the case of B8, the Ki in test [1] came to 22.7 nM; in test [2] it was 133 nM; in test [3], 0.0569 nM.

B9: Example 20 (peptide)
peptide: YXEGTFISDYSILLDKKAQXEFVNWLLAQGPSSGAPPPS
modifications: D-Ala2; K17((2-[2-(2-Amino-ethoxy)-ethoxy]-acetyl)2-(γ-Glu)-CO-(CH2)16-CO2H); Aib20; C-terminal amide
In the case of B9, the Ki is 79.8 nM in test [1], 216 nM in test [2] and 0.0477 nM in test [3].

B10: Example 121 (peptide)
peptide: Y[Aib]EGT[αMePhe(2-F)]ISDYSILLDKIHQ[Aib]DFVE[4Pal]K([AEEA-AEEA-γGlu-C20 diacid])LEQGPSSGAPPPS-NH2
modifications: N-terminus assumed
SMILES: CC[C@H](C)[C@H](NC(=O)[C@H](CO)NC(=O)[C@H](Cc1ccc(O)cc1)NC(=O)[C@H](CC(=O)O)NC(=O)[C@H](CO)NC(=O)[C@@H](NC(=O)[C@](C)(Cc1ccccc1F)NC(=O)[C@@H](NC(=O)CNC(=O)[C@H](CCC(=O)O)NC(=O)C(C)(C)NC(=O)[C@@H](N)Cc1ccc(O)cc1)[C@@H](C)O)[C@@H](C)CC)C(=O)N[C@@H](CC(C)C)C(=O)N[C@@H](CC(C)C)C(=O)N[C@@H](CC(=O)O)C(=O)N[C@@H](CCCCN)C(=O)N[C@H](C(=O)N[C@@H](Cc1c[nH]cn1)C(=O)N[C@@H](CCC(N)=O)C(=O)NC(C)(C)C(=O)N[C@@H](CC(=O)O)C(=O)N[C@@H](Cc1ccccc1)C(=O)N[C@H](C(=O)N[C@@H](CCC(=O)O)C(=O)N[C@@H](Cc1ccncc1)C(=O)N[C@@H](CCCCNC(=O)COCCOCCNC(=O)COCCOCCNC(=O)CC[C@H](NC(=O)CCCCCCCCCCCCCCCCCCC(=O)O)C(=O)O)C(=O)N[C@@H](CC(C)C)C(=O)N[C@@H](CCC(=O)O)C(=O)N[C@@H](CCC(N)=O)C(=O)NCC(=O)N1CCC[C@H]1C(=O)N[C@@H](CO)C(=O)N[C@@H](CO)C(=O)NCC(=O)N[C@@H](C)C(=O)N1CCC[C@H]1C(=O)N1CCC[C@H]1C(=O)N1CCC[C@H]1C(=O)N[C@@H](CO)C(N)=O)C(C)C)[C@@H](C)CC
Take B10: the Ki in test [2] is 94.9 nM; in test [3], 0.103 nM.

B11: Example 122 (peptide)
peptide: Y[Aib]EGTFISDYSI[αMeL]LD[Orn]IHQ[Aib]EFVE[4Pal]K([AEEA-AEEA-γGlu-C20 diacid])LEAGPSSGAPPPS-NH2
modifications: N-terminus assumed
SMILES: CC[C@H](C)[C@H](NC(=O)[C@H](CCCN)NC(=O)[C@H](CC(=O)O)NC(=O)[C@H](CC(C)C)NC(=O)[C@](C)(CC(C)C)NC(=O)[C@@H](NC(=O)[C@H](CO)NC(=O)[C@H](Cc1ccc(O)cc1)NC(=O)[C@H](CC(=O)O)NC(=O)[C@H](CO)NC(=O)[C@@H](NC(=O)[C@H](Cc1ccccc1)NC(=O)[C@@H](NC(=O)CNC(=O)[C@H](CCC(=O)O)NC(=O)C(C)(C)NC(=O)[C@@H](N)Cc1ccc(O)cc1)[C@@H](C)O)[C@@H](C)CC)[C@@H](C)CC)C(=O)N[C@@H](Cc1c[nH]cn1)C(=O)N[C@@H](CCC(N)=O)C(=O)NC(C)(C)C(=O)N[C@@H](CCC(=O)O)C(=O)N[C@@H](Cc1ccccc1)C(=O)N[C@H](C(=O)N[C@@H](CCC(=O)O)C(=O)N[C@@H](Cc1ccncc1)C(=O)N[C@@H](CCCCNC(=O)COCCOCCNC(=O)COCCOCCNC(=O)CC[C@H](NC(=O)CCCCCCCCCCCCCCCCCCC(=O)O)C(=O)O)C(=O)N[C@@H](CC(C)C)C(=O)N[C@@H](CCC(=O)O)C(=O)N[C@@H](C)C(=O)NCC(=O)N1CCC[C@H]1C(=O)N[C@@H](CO)C(=O)N[C@@H](CO)C(=O)NCC(=O)N[C@@H](C)C(=O)N1CCC[C@H]1C(=O)N1CCC[C@H]1C(=O)N1CCC[C@H]1C(=O)N[C@@H](CO)C(N)=O)C(C)C
Consider B11, for which the Ki is 957 nM in test [2] and 0.0311 nM in test [3].

B12: Example 3 (peptide)
peptide: Y[Aib]EGTFISDYSI[αMeL]LDKK([AEEA-AEEA-γGlu-C20 diacid])HQ[Aib]DFVE[4Pal]LLEAGPSSGAPPPS-NH2
modifications: N-terminus assumed
SMILES: CC[C@H](C)[C@H](NC(=O)[C@H](Cc1ccccc1)NC(=O)[C@@H](NC(=O)CNC(=O)[C@H](CCC(=O)O)NC(=O)C(C)(C)NC(=O)[C@@H](N)Cc1ccc(O)cc1)[C@@H](C)O)C(=O)N[C@@H](CO)C(=O)N[C@@H](CC(=O)O)C(=O)N[C@@H](Cc1ccc(O)cc1)C(=O)N[C@@H](CO)C(=O)N[C@H](C(=O)N[C@@](C)(CC(C)C)C(=O)N[C@@H](CC(C)C)C(=O)N[C@@H](CC(=O)O)C(=O)N[C@@H](CCCCN)C(=O)N[C@@H](CCCCNC(=O)COCCOCCNC(=O)COCCOCCNC(=O)CC[C@H](NC(=O)CCCCCCCCCCCCCCCCCCC(=O)O)C(=O)O)C(=O)N[C@@H](Cc1c[nH]cn1)C(=O)N[C@@H](CCC(N)=O)C(=O)NC(C)(C)C(=O)N[C@@H](CC(=O)O)C(=O)N[C@@H](Cc1ccccc1)C(=O)N[C@H](C(=O)N[C@@H](CCC(=O)O)C(=O)N[C@@H](Cc1ccncc1)C(=O)N[C@@H](CC(C)C)C(=O)N[C@@H](CC(C)C)C(=O)N[C@@H](CCC(=O)O)C(=O)N[C@@H](C)C(=O)NCC(=O)N1CCC[C@H]1C(=O)N[C@@H](CO)C(=O)N[C@@H](CO)C(=O)NCC(=O)N[C@@H](C)C(=O)N1CCC[C@H]1C(=O)N1CCC[C@H]1C(=O)N1CCC[C@H]1C(=O)N[C@@H](CO)C(N)=O)C(C)C)[C@@H](C)CC
Turning to B12, the figures for the Ki in test [1], in test [2] and in test [3] were 381 nM, 338 nM and 0.0525 nM, respectively.

As usually defined, the Ki is the dissociation constant of the complex between target and ligand, obtained from inhibition or displacement. A higher Ki goes with a looser hold on the target.
